{"source": "patent US20190359677A1", "about": "(published 2019)", "binders": {"B1": {"name": "SMF-48 (TCR, V domains shown)", "Valpha": "AQTVTQSQPEMSVQEAETVTLSCTYDTSESNYYLFWYKQPPSRQMILVIRQEAYKQQNATENRFSVNFQKAAKSFSLKISDSQLGDTAMYFCAFMKRGNRDDKIIFGKGTRLHILP", "Vbeta": "GAVVSQHPSWVICKSGTSVKIECRSLDFQATTMFWYRQFPKQSLMLMATSNEGSKATYEQGVEKDKFLINHASLTLSTLTVTSAHPEDSSFYICSASPTSGRRTQYFGPGTRLTVL"}, "B2": {"name": "KLL-85 (TCR, V domains shown)", "Valpha": "GQQLNQSPQSMFIQEGEDVSMNCTSSSIFNTWLWYKQDPGEGPVLLIALYKAGELTSNGRLTAQFGITRKDSFLNISASIPSDVGIYFCAGQLNQGAQKLVFGQGTRLTINP", "Vbeta": "DAGVIQSPRHEVTEMGQEVTLRCKPISGHNSLFWYRQTMMRGLELLIYFNNNVPIDDSGMPEDRFSAKMPNASFSTLKIQPSEPRDSAVYFCASSFYSADTQYFGPGTRLTVL"}, "B3": {"name": "SMF-72 (TCR, V domains shown)", "Valpha": "AQTVTQSQPEMSVQEAETVTLSCTYDTSESDYYLFWYKQPPSRQMILVIRQEAYKQQNATENRFSVNFQKAAKSFSLKISDSQLGDAAMYFCAYRGTSGTYKYIFGTGTRLKVLA", "Vbeta": "DTGVSQDPRHKITKRGQNVTFRCDPISEHNRLYWYRQTLGQGPEFLTYFQNEAQLEKSRLLSDRFSAERPKGSFSTLEIQRTEQGDSAMYLCASSKLAGKNIQYFGAGTRLSVL"}}, "key": {"[1]": {"molecular_target": "T1, MCV trLT (truncated large T antigen of Merkel cell polyomavirus) peptide on HLA-A*02:01 (human)", "T1 peptide": "SMFDEVDEA", "assay": "cytokine release"}, "[2]": {"molecular_target": "T2, MCV trLT and sT (large T and small T antigens of Merkel cell polyomavirus, shared exon 1) peptide on … (human)", "T2 peptide": "KLLEIAPNC", "assay": "cytokine release"}}}
{"binder": "B1", "values": [{"measurement": "binding result", "setting": "[1]", "result": "recognises"}, {"measurement": "binding result", "setting": "[2]", "result": "no recognition"}]}
{"binder": "B2", "values": [{"measurement": "binding result", "setting": "[2]", "result": "recognises"}]}
{"binder": "B3", "values": [{"measurement": "binding result", "setting": "[1]", "result": "recognises"}, {"measurement": "binding result", "setting": "[2]", "result": "no recognition"}]}
